22 sequences from the DeepSol protein solubility set can be followed below.

The data set can be described thus: soluble on expression in E. coli; label from the status in PepcDB or PDB records.
Take “MRNRTLADLDRVVALGGGHGLGRVLSSLSSLGSRLTGIVTTTDNGGSTGRIRRSEGGIAWGDMRNCLNQLITEPSVASAMFEYRFGGNGELSGHNLGNLMLKALDHLSVRPLEAINLIRNLLKVDTHLIPMSEHPVDLMAIDDQGHEVYGEVNIDQLTTPIQELLLTPNVPATREAVHAINEADLIIIGPGSFYTSLMPILLLKEIAQALRRTPAPMVYIGNLGRELSLPAANLKLESKLAIMEQYVGKKVIDAVIVGPKVDVSAVKERIVIQEVLEASDIPYRHDRQLLHNALEKALQALGLEHHHHHH”: the “soluble on expression in E. coli” value was “not soluble”.

Take “MNSSSTLQKLLDRRGQAANGNSATQAVQWQEGMNLTLHVNGDSLTMLAEIINLRADPQDDILLRKLLAHAFPGLRLRRGALTINPDENTLVYSYEHDFLALDKTRFENLLANFAETTQELRNTAQRLR”: the “soluble on expression in E. coli” value is “not soluble”.

“MKGFIDDANYSVGLLDEGTNLGNVIDNYVYEHTLTGKNAFFVGDLGKIVKKHSQWQTVVAQIKPFYTVKCNSTPAVLEILAALGTGFACSSKNEMALVQELGVSPENIIFTSPCKQVSQIKYAAKVGVNIMTCDNEIELKKIARNHPNAKVLLHIATEDNIGGEDGNMKFGTTLKNCRHLLECAKELDVQIIGVKFHVSSACKEYQVYVHALSDARCVFDMAGEFGFTMNMLDIGGGFTGTEIQLEEVNHVISPLLDIYFPEGSGIQIISEPGSYYVSSAFTLAVNIIAKKVVENDKFSSGVEKNGSDEPAFVYYMNDGVYGSFASKLSEDLNTIPEVHKKYKEDEPLFTSSLWGPSCDELDQIVESCLLPELNVGDWLIFDNMGADSFHEPSAFNDFQRPAIYFMMSFSDWYEMQDAGITSDAMMKNFFFAPSCIQLSQEDSFSTEA”: the “soluble on expression in E. coli” value is on record as “soluble”.

Consider “MTVVTTADTSQLYALAARHGLKLHGPLTVNELGLDYRIVIATVDDGRRWVLRIPRRAEVSAKVEPEARVLAMLKNRLPFAVPDWRVANAELVAYPMLEDSTAMVIQPGSSTPDWVVPQDSEVFAESFATALAALHAVPISAAVDAGMLIRTPTQARQKVADDVDRVRREFVVNDKRLHRWQRWLDDDSSWPDFSVVVHGDLYVGHVLIDNTERVSGMIDWSEARVDDPAIDMAAHLMVFGEEGLAKLLLTYEAAGGRVWPRLAHHIAERLAFGAVTYALFALDSGNEEYLAAAKAQLAAAE”, for which the “soluble on expression in E. coli” value is given as “not soluble”.

Regarding “MSLKIWGRKNSSNVRKALWIAHELGLDFESIDAGGAFGVVNEPHYRARNPNGLVPMLEDGDLTLWESNTIVRYLCAEYGTEQGWYLADPRQRALADKWMDWTTSSFATPFRPLFWGLLRTPEDQRDWVAINAAHKQCAQLLAIADETLASQPYLSGDQIGMGDIPLGSFIYAWFELPIERPDMYHLQAWYERLKQRPAYQAAVMTALTEGHHHHHH”, the “soluble on expression in E. coli” value is listed as “soluble”.

As for “MAISVVDLFSIGIGPSSSHTVGPMRAALTYISEFPSSHVDITLHGSLAATGKGHCTDRAVLLGLVGWEPTIVPIDAAPSPGAPIPAKGSVNGPKGTVSYSLTFDPHPLPEHPNAVTFKGSTTRTYLSVGGGFIMTLEDFRK”, the “soluble on expression in E. coli” value is on record as “not soluble”.

As for “MGSDKIHHHHHHMKTYDWIVVGGGMTGAVLAYELVKTGFSVLLLEKDAVAENATRYSYGGLAYWSGSTPLTRQLCQEARDRYNILPQELDADIELRELDLLLTIPADSDPQVTAELYAQCAVPPCLLSVPEACELELLLNPGAIAGALTVKHGHIHPQKTVQAYIQAFLRAGGELQIGEVSQVTSGGVKTTTVTYHSANVVVCAGGLSRRLLKSVGVSIKVYFTHAEIIETPPVDLRLNTLVMPANLQRFKLESTSTEVDELWNKPGNQLAPPILDAGAIQFLDGSLRLGQISRVLTDVDAYINHEESEDWLRQSISHILPILGNLPGNWHHCLVAFSSNSLPVIGVISELPGVHIFSGFSNPLVLIPPLAQRFAKFLSGTEDDIIPQFSDFLILTGS”, the “soluble on expression in E. coli” value is given as “not soluble”.

On to “MSLKYDYVIIGNSAGGIGCVEAIRELDVDSSILVISAEKYHAYSRALIPYYLDGKIEFEKMYYRPPDFYEKMDVETKLGVRAVGVDVEAKKVLLESGEEVEYGKLLIATGGKPFIPPMEGLGGQSNVFTFLKMDDVLAVEKAIKEAKKAVVLGGGIIGLMASEVLAKKGLDVKVVELADRVLAPVVDETTSRIVERKFEENGVEIILNNTISKVVGEERVEKVILRDGRELEADMLLVAVGVVPNVDIVKNTPIKVNRGIVVNRKMETSVKDVYACGDCAEIYDFVFGANRVLPLWPTAYTGGRIAGFNMVGIEREYNLATSMNAMHFFDYYIINAGLNVPNDSEEFEVIYRLEGDSYRKFALKDGRIAGFIIAGKMERAGIFLKLMEEGIDVSSFKEKLLKDNFGFLDIPEPTRWKLIEDKIKLGVVREIEGHHHHHH”, for which the “soluble on expression in E. coli” value is on record as “soluble”.

As to “MGSDKIHHHHHHMLFLKELESNLTVSKLMELCFEHPSYKDYCSVISTKKGEVLESLSPAGTKVYFVLSGIYGMIVEEDAEMEEESYKESIVRFLQKGDSFGLYHLFYDEWSPHVSMQSLGHGEVMEVDSNFLFSIFDKKDENNFFMIKVMAEELREAHTFAKLSFLKKEERIRKAILKCAQTLGTFSDNGILLPREITQEVLARYTNTSREYVAHTVMHLIKEDIIRNRPKPLLVMDKTRL”, the “soluble on expression in E. coli” value is listed as “not soluble”.

With “MGSDKIHHHHHHMLTTRKALYYLDKGKTKEAIHLLETCWNQKVTAENKRDIFTATVLLSDVLYQSGERFPEIYQKLMSILEEMQDLEAVDFEREKAKQIFAELDEYFSEVGTFFQGHSLAELWLKFDSENDYKDVYPTPQRVAAIEAELGYKLPKSYIYLMRHTQNGGIVSTGSVPTTEPSSWSENCVAITGIMGIGDCGVSTLNGMHNTNFWTEEWGYPDVGLAIADCPSAGHDMVFLDYRNCGKTGEPAVVHIDQEGDYKILKLADNFEEFILSLYREEY”, the “soluble on expression in E. coli” value is on record as “not soluble”.

As to “MVVQVQPVEVDVESLVTRVFLKAIDLLGGLHKLAEYRTLTWLPSLARAAFVIVYREEFLKTEEEIAELVGLTRQTVRNILRADPELALYKIQHIDELTKEEKKELRVHTAGGIAKLAYKKVKEGEEPKVFLEFCTMAAEALEVPWAYLLLKKIKGTHFPINSPEELKEKVKGVVIKGMPAEEVVEKIEYPVKNPADLLHKIKIHLKMMGVE”, the “soluble on expression in E. coli” value is listed as “soluble”.

Take “MTELKNDRYLRALLRQPVDVTPVWMMRQAGRYLPEYKATRAQAGDFMSLCKNAELACEVTLQPLRRYPLDAAILFSDILTVPDAMGLGLYFEAGEGPRFTSPVTCKADVDKLPIPDPEDELGYVMNAVRTIRHELKGEVPLIGFSGSPWTLATYMVEGGSSKAFTVIKKMMYADPQALHALLDKLAKSVTLYLNAQIKAGAQAVMIFDTWGGVLTGRDYQQFSLYYMHKIVDGLLRENDGRRVPVTLFTKGGGQWLEAMAETGCDALGLDWTTDIADARRRVGNKVALQGNMDPSMLYAPPARIEEEVATILAGFGHGEGHVFNLGHGIHQDVPPEHAGVFVEAVHRLSEQYHR”: the “soluble on expression in E. coli” value is “soluble”.

Regarding “MRIGHGFDVHKFGENGSGPLIIGGVRIPYEKGLLAHSDGDVALHAATDALLGAAALGDIGKLFPDTDPAFKGADSRGLLREAYRRILAKGYKLGNLDITIIAQAPKMAPHIPQMRVNLAEDLQCHMDDINVKATTTEQLGFTGRGEGIACEAVVLLVNVEQG”, the “soluble on expression in E. coli” value was “not soluble”.

Turning to “GPGSMEAAPAAAAPRLPQAPKRPREESDAPLQESSNGSVPANFSNEASVTTPVAGTELVVDVDQPETNAQASAVDAPRSRSRGLAAVGPGSTSPVAASRSGTDGANNCQPAAAVTTLSSSSASADARRFKQPTLAAYGLVSDTMTLKKEISDRDSHIEELNREVEGLRAEAGRRNDQINFMDGQCRQYQRKLEHFQSVMRQEMLSAAQKDRSEARRVLYQKHFELGQTATWHSNGQTVWMEGDRVRTLFLKLADLTQKREEVEALKKAAQSNVKHLARQEREREDSGAGPDLQDALMAAQMEYQLRASEHAALTNTIADVKLKQTEIEHEKKAFVKEMRRVNDEDTSEFLAIPTIGEGDRYVLMHLLGKGGFSEVWKAFDLVEGRYVACKIHHIQREWPAQTRTHYLRHAQRELDIMRALDHPHLTHLYDVFPRGDNMFISVMEYSNGMDLDTYLKRYRIFKEADARLIFLQVVDVLRYLASLDSPIIHYDLKPANILLHRDDPTILDIKITDFGLSKIIGATREGPSDNPSIELTSQGTGTYWYLPPECFETSSTPRISNKVDIWSAGVIFYQMLFGKRPFAEGESQRRIWQEKLIIQSARTLHFPDTPKVSEEAKDIIRGCLAFNERERCDVFQLSQDPYLFRTSRRSAHKAKSAAPAGVGSSNSPLMPPVTDATPAS”, the “soluble on expression in E. coli” value is recorded as “soluble”.

Turning to “MLLLIDNYDSFTYNLYQYFCELGTEVMVKRNDELQLTDIEQLAPSHVVISPGPCTPNEAGISLAVIRHFADKLPILGVCLGHQALGQAFGARVVRARQVMHGKTSAICHSGQGVFRGLNQPLTVTRYHSLVIATDSLPGRFELTAWTERGGEMDEIMGIRHRTLPLEGVQFHPESILSEQGHQLLDNFLKN”, the “soluble on expression in E. coli” value was “not soluble”.

Consider “MGFQNLWFSHPRKFGPGSRSCRVCAGHHGLIRKYGLDLCRRCFREQARDIGFKKLD”, for which the “soluble on expression in E. coli” value is reported as “not soluble”.

As to “NRGIEFSGGRNYVVKFDQPVSSEAVRSALSSPLQEKVLVTSIGTEGTEVRISTNYKIQEESEETEAEITDKLYQSLKGFYTQQPTADQFLDNIISSQKVSPSMSSDITRGA”, the “soluble on expression in E. coli” value was “not soluble”.

As to “LAQEKNYDLPEGVMVYVIEGPFFFGAVETFQSALANTHTDPKVLIIRMRWVPFIDVTGLQAMEEIILNLQKRGVRVLLSEANPLVDAKLRKMGIVQLIGEQNYYKEFSQALDVCRINDSDRKSQPPFEVAKPLASVTQ”, the “soluble on expression in E. coli” value is on record as “not soluble”.

Take “MGSDKIHHHHHHMNKAERQNLIITAIQQNKKMTALELAKYCNVSKRTILRDIDDLENQGVKIYAHYGKNGGYQIQQAQSKIALNLSETQLSALFLVLNESQSYSTLPYKSEINAIIKQCLSLPQTRLRKLLKRMDFYIKFDDTQHMTLPMLFSDILIYCTERNVMLVDHRVDDNIKAENVIFIGLLCKHGHWHAVIYDIAQDKTAELEIENIIDISYSFGKTIQTRDISIDNYHQFLNPIDS”: the “soluble on expression in E. coli” value was “not soluble”.

With “MAIETILVINKSGGLIYQRNFTNDEQKLNSNEYLILASTLHGVFAIASQLTPKALQLTQQTNIENTIPYIPYVGMSSNRSDTRNGGGNNNKHTNNEKLGSFKGDDFFKEPFTNWNKSGLRQLCTDQFTMFIYQTLTGLKFVAISSSVMPQRQPTIATTDKPDRPKSTSNLAIQIADNFLRKVYCLYSDYVMKDPSYSMEMPIRSNLFDEKVKKMVENLQ”, the “soluble on expression in E. coli” value was “soluble”.

Turning to “MGSDKIHHHHHHMANKIKVLLTGAGSTLGREILAQLLTMRKVFEISVLDIKRGHTMAFFEKYKKEIHIFYGDCSVQDNTVEACKGQDFVIHCQSLEKANADKRLRLAEDVNTMGTRYIIENLERFSPGAYLLYISTVGVYGDRLKAPMISADNMTCPSMGDYDALTKLQAEKLVQESSLEWTIYRPGIILGHDSSLLNSSVFCMPLATRFETVHIRDLASACVKAYDHKASLWGRTYNVGGGEACRIVYSDYIRRLFKLLGLGYPEFPDRAFATRNRFGGYFADGDALEAILHFRRHTIEDYFKELAAQQPILKKLANKIFVGVQRKSLEGKSAPLRAIKENDRAKKKYYF”, the “soluble on expression in E. coli” value is “not soluble”.

For “MKEKIALITGVTGQDGSYLAEYLLNLGYEVHGLKRRSSSINTSRIDHLYEDLHSDHKRRFFLHYGDMTDSSNLIHLIATTKPTEIYNLAAQSHVKVSFETPEYTANADGIGTLRILEAMRILGLEKKTRFYQASTSELYGEVLETPQNENTPFNPRSPYAVAKMYAFYITKNYREAYNLFAVNGILFNHESRVRGETFVTRKITRAASAIAYNLTDCLYLGNLDAKRDWGHAKDYVKMMHLMLQAPIPQDYVIATGKTTSVRDFVKMSFEFIGINLEFQNTGIKEIGLIKSVDEKRANALKLNLSHLKKGQIVVRIDERYFRPTEVDLLLGDPTKAEKELDWVREYDLKELVKDMLEYDLKECQKNLYLQDGGYILRNFYE”, the “soluble on expression in E. coli” value is given as “soluble”.
